The values that follow come from article PMC5928214, “Direct binding of CEP85 to STIL ensures robust PLK4 activation and efficient centriole assembly” (Nature Communications, 2018).

The target in one data set is 3xStrep-GFP-tagged STIL. Kind of data set: microtubule recruitment assay in cells (MAP7-mCherry-CEP85 / GFP-STIL co-transfection, fluorescence microscopy). The conditions noted are these: U-2 OS STIL CRISPR KO cells, co-transfected for 24 h; parent: 98; read off a plot.
Another data set concerns the target T1, chicken STIL NTD (chicken (Gallus gallus), UniProt A0A8V1A6L7 1-365).
T1 construct: STIL, chicken (Gallus gallus), N-terminal domain (NTD), 66% identical to human STIL NTD; construct details in the Supplementary Information; also called Gallus gallus STIL NTD; STIL NTD WT
T1 sequence (looked up): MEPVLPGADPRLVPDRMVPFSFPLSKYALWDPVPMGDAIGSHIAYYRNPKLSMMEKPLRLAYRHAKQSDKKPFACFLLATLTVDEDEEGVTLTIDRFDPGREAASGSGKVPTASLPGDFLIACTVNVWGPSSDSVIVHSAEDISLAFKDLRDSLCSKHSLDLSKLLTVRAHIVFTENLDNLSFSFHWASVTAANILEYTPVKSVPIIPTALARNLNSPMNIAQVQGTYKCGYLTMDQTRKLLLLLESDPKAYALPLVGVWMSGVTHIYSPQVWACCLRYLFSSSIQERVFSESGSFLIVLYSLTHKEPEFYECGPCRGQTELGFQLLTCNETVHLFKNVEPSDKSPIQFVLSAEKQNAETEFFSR
Kind of data set: ITC + AUC; recombinant chicken STIL NTD and human CEP85 cc4; affinity given as a range depending on the experimental conditions. The conditions noted are these: both partners purified.

Data set [1] deals with the molecule itself. Kind of data set: crystal structure; H. sapiens CEP85 570-656 alone; 18 °C, 100 mM Na-HEPES pH 7.7, 200 mM Na-Citrate, 36% MPD; 1.7 Å.
The target in data set [2] is T2, H. sapiens CEP85 570-656 (CEP85 cc4) (Homo sapiens (Human), UniProt Q6P2H3).
T2 chain: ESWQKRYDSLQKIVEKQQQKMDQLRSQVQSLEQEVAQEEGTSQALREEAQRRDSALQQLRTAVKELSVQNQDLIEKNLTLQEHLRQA
Kind of data set: ITC (25 °C, plus AUC); text gives only a range of ~14-65 µM, nM is its midpoint; affinity varies ~14-65 µM with experimental conditions; CEP85 cc4 must be dimeric to bind (dimer favoured at reduced temperature).

The target in data set [3] is T3, H. sapiens CEP85 570-656 (CEP85 cc4) (human, UniProt Q6P2H3 570-656).
T3 chain: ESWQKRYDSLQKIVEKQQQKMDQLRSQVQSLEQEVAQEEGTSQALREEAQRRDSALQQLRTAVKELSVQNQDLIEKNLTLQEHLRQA
Briefly: ITC; 10 °C.

As for “3xFLAG-MAP7(17-282)-mCherry-CEP85 wild type mutant E644A [human] / 3xStrep-GFP-tagged STIL [not stated] chain 2 E644A”, in the data set with 3xStrep-GFP-tagged STIL, the screen value is 47 % of cells.

Consider “3xFLAG-MAP7(17-282)-mCherry-CEP85 wild type mutant Q640A [human] / 3xStrep-GFP-tagged STIL [not stated] chain 2 Q640A”, for which the screen value in the data set with 3xStrep-GFP-tagged STIL was 22 % of cells.

As to “3xFLAG-MAP7(17-282)-mCherry-CEP85 wild type mutant Q640A; E644A [human] / 3xStrep-GFP-tagged STIL [not stated] chain 2 Q640A, chain 2 E644A”, the screen value in the data set with 3xStrep-GFP-tagged STIL was 11 % of cells.

B1: H. sapiens CEP85 570-656 (CEP85 cc4) (domain or fragment, human, UniProt Q6P2H3 570-656, looked up)
chain: ESWQKRYDSLQKIVEKQQQKMDQLRSQVQSLEQEVAQEEGTSQALREEAQRRDSALQQLRTAVKELSVQNQDLIEKNLTLQEHLRQA
notes: CEP85, human, fourth coiled-coil domain (cc4), residues 570-656; Limits are those printed for the crystallised construct; Parallel coiled-coil dimer in the crystals; monomer-dimer equilibrium in solution at room temperature; also called human CEP85 cc4; CEP85 coiled-coil
Turning to B1, the Kd (as a rule, a measure of binding affinity in units of concentration) in the data set with chicken STIL NTD lay within 14 to 65 µM. The stoichiometry N (commonly the number of molecules, sites or subunits per partner or assembly) in data set [1] came to 2.

B2: chicken STIL NTD (domain or fragment)
chain: MEPVLPGADPRLVPDRMVPFSFPLSKYALWDPVPMGDAIGSHIAYYRNPKLSMMEKPLRLAYRHAKQSDKKPFACFLLATLTVDEDEEGVTLTIDRFDPGREAASGSGKVPTASLPGDFLIACTVNVWGPSSDSVIVHSAEDISLAFKDLRDSLCSKHSLDLSKLLTVRAHIVFTENLDNLSFSFHWASVTAANILEYTPVKSVPIIPTALARNLNSPMNIAQVQGTYKCGYLTMDQTRKLLLLLESDPKAYALPLVGVWMSGVTHIYSPQVWACCLRYLFSSSIQERVFSESGSFLIVLYSLTHKEPEFYECGPCRGQTELGFQLLTCNETVHLFKNVEPSDKSPIQFVLSAEKQNAETEFFSR
For B2, the Kd in data set [2] is approximately 30 µM; in data set [3] it was 59 µM.
